Measurements published in US7235238 (IMMUNEX, dated 2007).

Legend:
[1] = target: T1, soluble type I IL-1RI/Fc fusion protein (extracellular domain of human type I IL-1R fused to the Fc region … (human, UniProt P14778 18-336)); assay: BIAcore; Fc fusion captured by anti-human IgG Fc serum
T1 construct: extracellular domain; Positive control in the BIAcore assay; also called human type I IL-1R/Fc fusion protein; not shown: Fc region polypeptide (human IgG1, as for 2F1/Fc)
T1 sequence (looked up): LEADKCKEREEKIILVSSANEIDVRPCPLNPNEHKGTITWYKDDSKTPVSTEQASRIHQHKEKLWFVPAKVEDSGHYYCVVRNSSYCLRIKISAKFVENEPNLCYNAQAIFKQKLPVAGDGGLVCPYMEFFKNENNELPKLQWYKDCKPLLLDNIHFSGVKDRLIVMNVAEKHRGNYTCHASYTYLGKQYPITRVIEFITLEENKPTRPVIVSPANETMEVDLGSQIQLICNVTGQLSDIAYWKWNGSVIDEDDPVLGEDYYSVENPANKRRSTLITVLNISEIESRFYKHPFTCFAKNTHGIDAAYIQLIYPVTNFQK
From the text: (§1) A BIAcore biosensor (Pharmacia Biosensor AB, Piscataway, N.J.) was used to examine binding of IL-1 ligands to the human 2F1/Fc fusion protein, using procedures essentially as described in Arend et al. (*J. Immunol.* 153: 4766–4774, 1994). Briefly, a goat anti-human IgG serum directed against the Fc region (Jackson Immunoresearch Laboratories, Inc., West Grove, Pa.), covalently coupled to the dextran matrix of a hydrogel chip, was used to capture the human 2F1/Fc protein. The 2F1/Fc fusion protein thus was immobilized on the BIAcore chip. The three IL-1 ligands, at several different concentrations, were reacted with the captured protein, and the change of mass per unit area over time was measured.

[2] = target: chimeric receptor: extracellular and transmembrane portions of the mouse type I IL-1 receptor fused to the cytoplasmic portion of human 2F1 (mouse; human) (UniProt P13504); assay: cell-based or functional assay; details: scale: fold of the level mediated by the intact mouse type I IL-1R
chimeric receptor: extracellular and transmembrane portions of the mouse type I IL-1 receptor fused to the cytoplasmic portion of human 2F1 (mouse; human), sequence (P13504 other isoform, or with tags, fused parts or gaps mutant, form in doubt): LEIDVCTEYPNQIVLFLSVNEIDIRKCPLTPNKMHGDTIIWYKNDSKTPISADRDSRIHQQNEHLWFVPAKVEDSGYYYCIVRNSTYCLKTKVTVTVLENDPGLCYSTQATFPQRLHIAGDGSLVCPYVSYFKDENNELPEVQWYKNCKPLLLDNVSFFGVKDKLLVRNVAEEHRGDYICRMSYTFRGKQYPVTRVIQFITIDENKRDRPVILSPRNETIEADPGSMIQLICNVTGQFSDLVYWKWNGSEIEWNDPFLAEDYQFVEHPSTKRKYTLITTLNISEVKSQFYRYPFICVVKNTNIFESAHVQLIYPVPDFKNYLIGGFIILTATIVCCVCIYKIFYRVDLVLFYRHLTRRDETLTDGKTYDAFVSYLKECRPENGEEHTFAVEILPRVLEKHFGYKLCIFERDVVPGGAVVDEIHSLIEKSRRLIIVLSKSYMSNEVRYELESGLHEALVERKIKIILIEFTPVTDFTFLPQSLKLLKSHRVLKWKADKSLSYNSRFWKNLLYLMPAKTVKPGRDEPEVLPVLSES

[3] = target: T2, 2F1/Fc soluble fusion protein (human 2F1 extracellular domain joined to the Fc region of a human IgG1) (human, UniProt Q13478 20-329); assay: BIAcore; 2F1/Fc captured by anti-human IgG Fc serum, ligand at several different concentrations
T2 construct: Captured on the BIAcore chip by goat anti-human IgG Fc serum; also called human 2F1/Fc fusion protein; 2F1/Fc protein; not shown: Fc region of a human IgG1; made by procedures analogous to Baum et al. 1994
T2 sequence: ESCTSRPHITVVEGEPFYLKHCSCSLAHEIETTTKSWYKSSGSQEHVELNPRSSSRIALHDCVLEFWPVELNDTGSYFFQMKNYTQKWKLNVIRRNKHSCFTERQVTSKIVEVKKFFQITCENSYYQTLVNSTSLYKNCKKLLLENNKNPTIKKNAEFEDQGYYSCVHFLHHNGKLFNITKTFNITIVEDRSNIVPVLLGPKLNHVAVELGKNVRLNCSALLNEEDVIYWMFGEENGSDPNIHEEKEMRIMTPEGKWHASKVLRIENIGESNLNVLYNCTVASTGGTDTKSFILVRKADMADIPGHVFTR
From the text: as §1

B1: human IL-1α (ligand, UniProt P01583 113-271, looked up)
chain: SAPFSFLSNVKYNFMRIIKYEFILNDALNQSIIRANDQYLTAAALHNLDEAVKFDMGAYKSSKDDAKITVILRISKTQLYVTAQDEDQPVLLKEMPEIPKTITGSETNLLFFWETHGTKNYFTSVAHPNLFIATKQDYWVCLAGGPPSITDFQILENQA
[1]
  binding result: binds
[2]
  induction of IL-8 promoter function (IL-2Rα reporter, COS7 cells): 0.5
[3]
  binding result: no binding
